This note sets out measurements from patent publication US20260001961A1 (ALLIGATOR BIOSCIENCE, published 2026).

Assay [1] concerns the target T1, CD40 expressed on cells (UniProt P25942 21-277).
T1 construct: whole, on cells; also called B16-CD40; CD40 expressing B16 cells
In words: flow cytometry on B16 cells expressing CD40, anti-human IgG Fcg-PE; B16wt cells as control. (In general: A flow cytometer gives signals particle by particle.)
Experimental: (§1) Binding to respective targets expressed on cells were evaluated using flow cytometry. I brief, CHO cells modified to express 5T4, B16 cells modified to express CD40 as well as the wildtype CHO and B16 cell lines were incubated with titrated concentrations of RUBY™ bsAbs. Binding of the antibodies was detected using fluorochrome-conjugated anti-human IgG and analyzed using flow cytometry.

Assay [2] deals with T2, 5T4 expressed on CHO cells (UniProt Q13641 32-420, limits assumed).
T2 construct: whole, on cells; also called CHO-5T4; 5T4 expressing CHO cells
T2 sequence (looked up): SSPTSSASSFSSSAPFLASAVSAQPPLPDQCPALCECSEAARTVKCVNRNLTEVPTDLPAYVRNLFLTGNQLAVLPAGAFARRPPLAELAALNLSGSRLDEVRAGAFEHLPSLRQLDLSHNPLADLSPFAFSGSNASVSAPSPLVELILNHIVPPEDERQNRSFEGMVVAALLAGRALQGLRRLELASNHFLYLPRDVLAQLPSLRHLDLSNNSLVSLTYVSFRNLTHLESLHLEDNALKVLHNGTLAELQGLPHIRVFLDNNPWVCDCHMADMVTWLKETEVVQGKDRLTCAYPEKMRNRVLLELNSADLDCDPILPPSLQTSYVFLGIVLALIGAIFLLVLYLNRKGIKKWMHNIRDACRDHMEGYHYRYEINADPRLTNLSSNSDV
In words: flow cytometry on CHO cells expressing 5T4, anti-human IgG Fcg-PE; CHOwt cells as control.
Experimental: as §1

The target of assay [3] is T1, CD40 expressed on cells. In words: flow cytometry on B16 cells expressing CD40, anti-human IgG Fcg-PE; B16wt cells as control. This is another data set of the same source.
Experimental: as §1
Another assay addresses T3, CD40 (UniProt P25942 21-193).
T3 construct: also called biotinylated CD40; CD40 antigen
In words: dual target ELISA (simultaneous 5T4 and CD40).

Numbering of substitutions follows the chain as printed. Names and notes keep the numbering of the source.

T1 sequence (P25942 21-277 limits assumed): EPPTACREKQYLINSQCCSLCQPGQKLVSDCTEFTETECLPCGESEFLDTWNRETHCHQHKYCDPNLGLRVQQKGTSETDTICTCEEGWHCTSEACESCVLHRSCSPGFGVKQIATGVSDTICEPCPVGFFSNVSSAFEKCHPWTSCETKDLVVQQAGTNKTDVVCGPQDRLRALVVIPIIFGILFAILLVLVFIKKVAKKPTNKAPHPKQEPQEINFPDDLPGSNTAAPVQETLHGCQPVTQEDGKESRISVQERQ
T3 sequence (P25942 21-193 limits assumed): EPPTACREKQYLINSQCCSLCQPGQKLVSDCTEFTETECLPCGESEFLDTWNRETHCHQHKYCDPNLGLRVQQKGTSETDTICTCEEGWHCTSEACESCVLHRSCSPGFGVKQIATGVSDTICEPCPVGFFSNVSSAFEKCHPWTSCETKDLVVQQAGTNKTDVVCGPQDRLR

B1: AC_05332 (bispecific antibody, human IgG1, kappa, L234A L235A)
heavy: not shown
light: DIQMTQSPSSLSASVGDRVTITCRASQSISSYLNWYQEKPGKAPKLLIYAASSLQSGVPSRFSGSGSGTDFTLTISSLQPEDFATYYCQQTYGYLHTFGQGTKLEIKRTVAAPSVFIFPPSDEQLKSGTASVVCYLNNFYPREAKVQWKVDNALQSGNSQESVTEQDSKDSTYSLWSTLTLSKADYEKHKVYACEVTHQGLSSPVTKSFNRGEC
chain: EVQLLESGGGLVQPGGSLRLSCAASGFTFSSYAMSWVREAPGKGLEWVSGIGSYGGGTYYADSVKGRFTISRDNSKNTLYLQMNSLRAEDTAVYYCARYVNFGMDYWGQGTLVTVSSASTKGPSVFPLAPSSKSTSGGTAALGCLVKDYFPEPVTVSWNSGALTSGVHTFPAVLQSSGLYSLSSVVEVPSSSLGTQTYICNVNHKPSNTKVDKKVEPKSC
notes: RUBY format; H1 (role heavy) = IgG heavy chain-linker-Fab light chain, L1 (role light) = IgG light chain, H2 (role chain) = Fab heavy chain; also called parental bsAb AC_05332; 5T4xCD40
Consider B1, for which the EC50 (read off the curve) – broadly, the midpoint of the concentration-response curve – in the assay with CD40 expressed on cells [1] is about 5 nM; in assay [2], about 10 nM.

B2: AC_05376 (bispecific antibody)
heavy 1: not shown
light: B1 light with T91Y, Y92G, G93R, Y94N, L95P, H96P
heavy 2: EVQLLESGGGLVQPGGSLRLSCAASGFTFSSYAMSWVREAPGKGLEWVSAISGSGGSEYYADSVKGRFTISRDNSKNTLYLQMNSLRAEDTAVYYCARYYGGYYSAWMDYWGQGTLVTVSSASTKGPSVFPLAPSSKSTSGGTAALGCLVKDYFPEPVTVSWNSGALTSGVHTFPAVLQSSGLYSLSSVVEVPSSSLGTQTYICNVNHKPSNTKVDKKVEPKSC
notes: AC_05302 with the mutation in the VH of chain H2; also called T65E mutant of AC_05302; copies: 2 + 2 + 2
On to B2, for which the binding result with CD40 expressed on cells [3] is “no binding (tested: about 330 nM)”; with CD40, “no binding”.
